Numbering of substitutions follows the chain as printed.
Columns and labels:
[1] = target: LILRB2 antigen of the ELISA of Table 5 (format not specified) (UniProt Q8N423 22-460, limits assumed); assay: ELISA, antibody titration
[2] = target: T1, human LILRB3 expressed on 293T cells (human, UniProt O75022 24-631); assay: cell ELISA on fixed 293T transfectants, OD490
T1 construct: whole, on cells
How it was run: (§1)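 Transfected cells fixed with glutaraldehyde in 5% defatted milk for 2 h at RT, then probed with antibody at 2 μg/ml for 2 h at RT. Bound antibody detected with HRP goat anti-mouse secondary (1 h) and OPD substrate, 15 min development, OD490 read.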

[3] = target: T2, human LILRB1 expressed on 293T cells (human, UniProt Q8NHL6 24-650); assay: cell ELISA on fixed 293T transfectants, antibody 2 µg/ml, OD490
T2 construct: whole, on cells
Experimental: (§2) The cells were then immobilized with glutaraldehyde in the presence of 5% defatted milk at room temperature for 2 hours. An anti-LILRB2 antibody (2 μg/ml) was added to each well and incubated at room temperature for 2 hours. An HRP-labelled goat anti-mouse secondary antibody was then added into each well and incubated at room temperature for one hour. An HRP substrate, o-phenylenediamine dihydrochloride (OPD) was then added to each well. The plate was incubated at room temperature for 15 min to allow color development and OD₄₉₀ values were determined.

[4] = target: T2, human LILRB1 expressed on 293T cells; assay: cell ELISA on fixed 293T transfectants, OD490
How it was run: as §1

LILRB2-Fc fusion protein = target: T3, LILRB2-Fc fusion protein (human, UniProt Q8N423 22-460, limits assumed); assay: ELISA, blockade of LILRB2-Fc binding to coated His-ANGPTL2
T3 construct: not shown: Fc
Experimental: His-tagged ANGPTL2 protein (1 μg/ml) was placed in a 96-well plate ([…]) and incubated at 4° C. overnight. Afterwards, LILRB2-Fc fusion protein at 0.25 mg/ml was incubated with the anti-LILRB2 antibody at various concentrations at room temperature for one hour and then added into the His-ANGPTL2 coated plate. The plate was placed in a shaker at 500 rpm for 2 hours at room temperature. HRP-labelled goat anti-human Fc antibody (1:10,000 dilution) was added to the plate (100 μl/well). After incubation at room temperature for 1 hour, TMB was added for color development.
Clones 11B12, 9B6, 9H6, and 14F1 were selected for dose-dependent blockade assays. A mouse IgG (mIgG) antibody was used as a negative control. […] The IC₅₀ values are around 1 nM. […] (ix) Exemplary Anti-LILBR2 Antibodies Enhanced TNFα Expression and Suppressed IL-10 Expression in LPS-Stimulated PBMCs

LILRB3-His = target: T4, LILRB3-His; assay: ELISA on recombinant His-tagged protein, OD450
T4 construct: also called His-tagged LILRB3; recombinant LILRB3 protein

[5] = target: T5, His-tagged human LILRB2 polypeptide (human, UniProt Q8N423 22-460); assay: SPR, antibody on CM5 chip, His-LILRB2 analyte, 1:1 model
T5 construct: SPR analyte; also called His-tagged human LILBR2 polypeptide; not shown: His tag
Experimental: Surface plasmon resonance (SPR) was used to examine binding activities of exemplary anti-LILBR2 antibodies disclosed herein. Briefly, the anti-LILBR2 antibody was diluted in a coating buffer to a concentration of 30 μg/ml, loaded onto CM5 chips at 10 μl/min to allow coating of the antibody on the surface of the CM5 chip. […] Binding affinity was measured based on the 1:1 binding model.

[6] = target: T6, human LILRB2 expressed on cells (293T-LILRB2, CHO-K1-LILRB2) (human, UniProt Q8N423 22-597); assay: flow cytometry, blockade of PE-HLA-G tetramer binding to 293T-huLILRB2 cells
T6 construct: whole, on cells; the cell line is named under assay; also called HEK293T-LILRB2
Experimental: Pre-experimentation was performed to determine parameters for this assay. […] The cells were washed twice and then analysed by flow cytometry. […] FIG. 3C.
A mouse IgG (mIgG) antibody was used as a negative control.

[7] = target: T6, human LILRB2 expressed on cells …; assay: flow cytometry, blockade of PE-HLA-A2 tetramer binding to CHO-K1-huLILRB2 cells
Experimental: Pre-experimentation was performed to determine parameters for this assay. PE-labelled HLA-A2 tetramer at the concentration of 0.25 μg/ml and an anti-LILRB2 antibody at the concentration of 2.5 μg/ml were incubated with CHO-K1-huLILRB2 cells for 10 minutes. The cells were washed twice and then analysed by flow cytometry. […] FIG. 3A.
Clones 11B12, 9B6, and 9H6 were selected for dose-dependent blockade assays against HLA-A2 from binding to CHO-K1-huLILRB2 cells. A mouse IgG (mIgG) antibody was used as a negative control.

[8] = target: T2, human LILRB1 expressed on 293T cells; assay: cell ELISA, 293T-LILRB1 cells, antibody 2 ug/ml
Experimental: as §2

[9] = target: T6, human LILRB2 expressed on cells …; assay: cell ELISA, 293T-LILRB2 cells, antibody 2 ug/ml
Experimental: as §2

[10] = target: T1, human LILRB3 expressed on 293T cells; assay: cell ELISA, 293T-LILRB3 cells, antibody 2 ug/ml
Experimental: as §2

[11] = target: T2, human LILRB1 expressed on 293T cells; assay: flow cytometry on 293T transfectants, MFI
Experimental: (§3) The cells were then immobilized with glutaraldehyde in the presence of 5% defatted milk at room temperature for 2 hours. An anti-LILRB2 antibody (5 μg/ml) was added to each well and incubated at room temperature for 1 hours. An Alex Flour®-labelled goat anti-mouse secondary antibody (1:2,000 dilution) was then added into each well and incubated at room temperature for 30′. The cells were washed twice with PBS after the staining. Fluorescence intensities (MFI) were measured.

[12] = target: T1, human LILRB3 expressed on 293T cells; assay: flow cytometry on 293T transfectants, MFI
Experimental: as §3

LILRB1-His = target: T7, LILRB1-His; assay: ELISA on recombinant His-tagged protein, OD450
T7 construct: also called His-tagged LILRB1; recombinant LILRB1 protein

[13] = target: T6, human LILRB2 expressed on cells …; assay: flow cytometry on 293T-LILRB2 cells, serial dilution, APC anti-human IgG; fit table under the graph
Text: The cells were washed and then subject to flow cytometry to measure levels of fluorescent signals.

[14] = target: T6, human LILRB2 expressed on cells …; assay: flow cytometry, blockade of His-tagged HLA-G tetramer binding to 293T-LILRB2 cells; fit table under the graph
Experimental: Serial diluted humanized LILRB2 antibodies were then added to the mixture and incubated at room temperature for another 45 minutes. The binding of HLA-G/LILRB2 was detected afterwards using a secondary PE-labeled anti-His tag antibody via flow cytometry.

Chain of LILRB2 antigen of the ELISA of Table 5 (format not specified) (Q8N423 22-460 limits assumed): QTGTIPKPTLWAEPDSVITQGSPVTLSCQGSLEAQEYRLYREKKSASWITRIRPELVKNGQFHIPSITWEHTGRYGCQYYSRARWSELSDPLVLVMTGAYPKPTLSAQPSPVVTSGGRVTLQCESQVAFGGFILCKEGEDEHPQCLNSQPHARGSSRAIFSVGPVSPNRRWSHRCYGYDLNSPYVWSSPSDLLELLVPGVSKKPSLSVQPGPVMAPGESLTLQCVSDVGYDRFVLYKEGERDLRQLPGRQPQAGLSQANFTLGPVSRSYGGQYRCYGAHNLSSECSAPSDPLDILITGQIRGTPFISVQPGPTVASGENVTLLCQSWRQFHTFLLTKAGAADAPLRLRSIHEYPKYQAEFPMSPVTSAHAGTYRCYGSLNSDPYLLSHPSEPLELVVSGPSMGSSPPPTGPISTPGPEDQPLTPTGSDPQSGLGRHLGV
T5 sequence (Q8N423 22-460 limits assumed): as above
T3 sequence (Q8N423 22-460 limits assumed): as above
T7 sequence (chain, as listed by the source limits assumed): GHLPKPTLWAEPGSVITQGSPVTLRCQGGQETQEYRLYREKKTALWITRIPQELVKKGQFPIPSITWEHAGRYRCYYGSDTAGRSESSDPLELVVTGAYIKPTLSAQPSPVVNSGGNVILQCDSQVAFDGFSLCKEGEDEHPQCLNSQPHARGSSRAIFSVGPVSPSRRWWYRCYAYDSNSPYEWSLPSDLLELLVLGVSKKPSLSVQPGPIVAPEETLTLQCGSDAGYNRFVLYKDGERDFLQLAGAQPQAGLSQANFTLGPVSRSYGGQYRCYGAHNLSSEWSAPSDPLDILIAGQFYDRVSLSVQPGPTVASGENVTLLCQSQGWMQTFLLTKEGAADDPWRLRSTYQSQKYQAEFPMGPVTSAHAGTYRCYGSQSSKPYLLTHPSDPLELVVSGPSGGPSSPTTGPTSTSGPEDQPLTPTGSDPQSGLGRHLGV
T2 sequence (Q8NHL6 24-650): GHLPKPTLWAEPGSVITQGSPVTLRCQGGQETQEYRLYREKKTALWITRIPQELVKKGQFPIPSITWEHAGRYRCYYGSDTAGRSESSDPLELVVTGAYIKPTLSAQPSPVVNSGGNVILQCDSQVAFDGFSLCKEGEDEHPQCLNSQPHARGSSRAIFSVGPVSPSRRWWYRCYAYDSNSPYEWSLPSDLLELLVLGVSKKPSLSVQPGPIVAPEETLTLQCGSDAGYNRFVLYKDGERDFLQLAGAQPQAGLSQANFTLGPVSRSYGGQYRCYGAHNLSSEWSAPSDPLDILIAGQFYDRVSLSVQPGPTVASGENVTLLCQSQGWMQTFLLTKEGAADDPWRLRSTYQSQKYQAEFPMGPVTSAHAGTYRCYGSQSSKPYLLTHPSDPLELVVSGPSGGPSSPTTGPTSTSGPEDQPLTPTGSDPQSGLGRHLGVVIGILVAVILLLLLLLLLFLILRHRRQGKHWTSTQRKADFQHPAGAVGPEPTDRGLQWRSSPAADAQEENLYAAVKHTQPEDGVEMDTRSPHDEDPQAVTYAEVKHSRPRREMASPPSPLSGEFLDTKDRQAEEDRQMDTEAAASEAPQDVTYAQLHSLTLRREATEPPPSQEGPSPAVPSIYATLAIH
T6 sequence (Q8N423 22-597): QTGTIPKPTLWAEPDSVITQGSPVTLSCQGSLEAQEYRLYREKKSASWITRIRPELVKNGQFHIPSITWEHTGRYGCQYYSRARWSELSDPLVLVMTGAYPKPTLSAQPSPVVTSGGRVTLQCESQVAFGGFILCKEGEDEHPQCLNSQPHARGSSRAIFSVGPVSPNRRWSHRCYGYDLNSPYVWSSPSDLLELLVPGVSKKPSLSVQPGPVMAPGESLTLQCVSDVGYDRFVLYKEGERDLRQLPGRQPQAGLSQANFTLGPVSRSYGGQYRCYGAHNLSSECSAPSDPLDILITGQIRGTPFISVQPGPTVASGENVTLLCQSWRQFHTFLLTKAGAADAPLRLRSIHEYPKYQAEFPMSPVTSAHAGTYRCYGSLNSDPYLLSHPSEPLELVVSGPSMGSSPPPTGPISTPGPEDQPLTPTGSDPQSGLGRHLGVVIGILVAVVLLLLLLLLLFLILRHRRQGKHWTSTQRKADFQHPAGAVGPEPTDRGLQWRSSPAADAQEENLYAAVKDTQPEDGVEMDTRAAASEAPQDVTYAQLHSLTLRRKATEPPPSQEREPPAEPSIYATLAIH

B1: Antibody 13D12 (antibody, V domains shown)
VH: EIQLQQSGPELVKPGASVKVSCKASGYAFTSHNIYWVKQSHGKSLEWIGYIDPYNGGSTYNQKFKDKATLTVDKSSSTAYMHLKSLTSEDSAVYYCARGDYRDFWGQGTTLTVSS
VL: DIQMTQTTSSLSASLGDRVTIRCSASQAINNYLNWYQQKPDGTVKLLIYYTSSLHSGVPSRFSGSGSGADYSLTISNLEPEDIATYYCQQYSHLPWTFGGGTTLEIK
notes: Mouse hybridoma mAb purified from ascites
Kd [1]: 2.48 nM | binding result [2]: no binding (tested: 2 µg/ml) | binding result [3]: binds

B2: Antibody 11B12 (antibody, V domains shown)
VH: DVQLQESGPGLVKPSQSLSLTCSVTGYSITSGYYWNWIRQFPGNKLEWMGYISYDGNNNYNPSLKNRISITRDTSKNQFFLKLNSVTTEDTATYYCAREESTMITTAWFAYWGQGTLVTVSA
VL: DIQMTQSPASLSVSVGETVTITCRASENIYSNLAWYQQKQGKSPQLLVYGATNLADGVPSRFSGSGSGTQYSLKINSLQSEDFGSYFCQHFWDTPYTFGGGTKLEIK
notes: as for B1
Kd [1]: 3.2 nM | binding result [4]: no binding (tested: 2 µg/ml) | binding result [2]: no binding (tested: 2 µg/ml) | IC50 (LILRB2-Fc fusion protein): 1 nM | binding result (LILRB3-His): no binding | Kd [5]: 0.353 nM | koff [5]: 0.00032 s⁻¹ | kon [5]: 905000 M⁻¹ s⁻¹ | IC50 [6]: 0.857 nM | IC50 [7]: 0.475 nM

B3: Antibody 9B6 (antibody, V domains shown)
VH: DVQLVESGGGLVQPGWSRILSCAASGFTFSNFGMHWVRQAPEKGLEWVAYISSGSGTIYYSDTVRGRFTISRDNPKNTLFLLMTSLRSEDTAMYYCTRSDYDGDWFFDVWGAGTTVTVSS
VL: DIVMTQSHRFLSTSVGDRVTITCKASQDVTTAVAWCQQKPGQSPKLLIYSASFRYTGVPDRFTGSGSGTDFTFTINNVQAEDLALYYCQQHFTTPLTFGAGTKLELK
notes: as for B1
Kd [1]: 0.943 nM | OD490 [8]: 0.121 OD490 | OD490 [9]: 1.43 OD490 | OD490 [10]: 0.126 OD490 | binding result [11]: no binding (tested: 5 µg/ml) | binding result [12]: no binding (tested: 5 µg/ml) | IC50 (LILRB2-Fc fusion protein): 1.01 nM | binding result (LILRB1-His): no binding | binding result (LILRB3-His): no binding | Kd [5]: 1.07 nM | koff [5]: 0.000864 s⁻¹ | kon [5]: 809000 M⁻¹ s⁻¹ | IC50 [6]: 0.618 nM | IC50 [7]: 0.34 nM

B4: Antibody 9H6 (antibody, V domains shown)
VH: EVQLQQSGAELVRPGALVKLSCKASGFNVKDYYMHWVKQRPEQGLEWIGWIDPKNGNGIYDPKFQGKASITADTSSNTAYLQLSSLTSEDTSVYYCARGDYFGSSYLFAYWGQGTLVTVSA
VL: DIVMTQSHKFMSTSVGDRVSITCKASQDVSTAVAWYQQKPGQSPKLLIYSASYRYTGVPDRFTGSGSGTDFTFTISSVQAEDLAVYYCQQHYSTPWTFGGGAKLEIK
notes: as for B1
Kd [1]: 1.04 nM | OD490 [8]: 0.177 OD490 | OD490 [9]: 1.86 OD490 | OD490 [10]: 0.139 OD490 | binding result [11]: no binding (tested: 5 µg/ml) | binding result [12]: no binding (tested: 5 µg/ml) | IC50 (LILRB2-Fc fusion protein): 0.945 nM | binding result (LILRB1-His): no binding | binding result (LILRB3-His): no binding | Kd [5]: 0.0257 nM | koff [5]: 4.72e-06 s⁻¹ | kon [5]: 183000 M⁻¹ s⁻¹ | IC50 [6]: 3.12 nM | IC50 [7]: 4.97 nM

B5: Antibody 14F1 (antibody, V domains shown)
VH: QVQLKESGPGLVAPSQSLSITCTVSGFSLTTYGVHWVRQPPGKGLEWLGVIWTGGSTNYNSALMSRLSIIKDNSKSQVFLKMNSLQTDDTAIYYCARGGYGHTMDYWGQGTSVTVSS
VL: B4 VL with T31I, S43F, S65G, W96F, G100S, A102T
notes: as for B1
Kd [1]: 1.24 nM | OD490 [8]: 0.172 OD490 | OD490 [9]: 1.21 OD490 | OD490 [10]: 0.172 OD490 | binding result [11]: no binding (tested: 5 µg/ml) | binding result [12]: no binding (tested: 5 µg/ml) | IC50 (LILRB2-Fc fusion protein): 0.942 nM | binding result (LILRB1-His): no binding | binding result (LILRB3-His): no binding | IC50 [6]: 0.82 nM

B6: Antibody h#12a (antibody, V domains shown)
VH: EVQLVESGGGLVQPGGSLRLSCAASGFTFSNFGMHWVRQAPGKGLEWVAYISSGSGTIYYSDTVRGRFTISRDDSKNTLYLQMNSLRAEDTAVYYCARSDYDGDWFFDVWGQGTLVTVSS
VL: DIQMTQSPSSLSASVGDRVTITCKASQDVTTAVAWYQQKPGKAPKLLIYSASFRYTGVPSRFSGSGSGTDFTLTISSLQPEDFATYYCQQHFTTPLTFGQGTKVEIK
notes: Humanized variant of 9B6
Kd [13]: 0.242 nM | IC50 [14]: 0.318 nM
